B1: His-tagged AgGPPS1 truncated protein (SEQ ID NO:16) (enzyme)
chain: MFDFKEYLHSKAISVNEALERAVPLRYPEKIHEAMRYSLLAGGKRIRPILTIAACELVGGSEELAMPTACAMEMIHTMSLIHDDLPSMDNDDLRRGKLTNHKVFGEGTAVLAGDALLSFAFEHIAVSTRKTVASHRVLRVVSELGKAIGSQGVAGGQVADITSEGDPSVGLETLEWIHIHKTAVLLECAVVSGAIIGGASENEIERTGRYARCVGLLFQVVDDILDVTRSSEELGKTAGKDLVSDKATYPKLMGLEKAKEFADELLDRAKEELSCFNPAKAAPLLGLADYIALRQNLEHHHHHH
notes: N-terminally truncated (leader removed) with C-terminal His6 tag, expressed in E. coli; homodimer by gel filtration
B2: His-tagged AgGPPS2 truncated protein (SEQ ID NO:12) (enzyme)
chain: MFDFNKYMDSKAMTVNEALNKAIPLRYPQKIYESMRYSLLAGGKRVRPVLCIAACELVGGTEELAIPTACAIEMIHTMSLMHDDLPCIDNDDLRRGKPTNHKIFGEDTAVTAGNALHSYAFEHIAVSTSKTVGADRILRMVSELGRATGSEGVMGGQMVDIASEGDPSIDLQTLEWIHIHKTAMLLECSVVCGAIIGGASEIVIERARRYARCVGLLFQVVDDILDVTKSSDELGKTAGKDLISDKATYPKLMGLEKAKEFSDELLNRAKGELSCFDPVKAAPLLGLADYVAFRQNLEHHHHHH
notes: as for B1
B3: His-tagged AgGPPS3 truncated protein (SEQ ID NO:20) (enzyme)
chain: MFDFNKYMLSKAMAVTEALDKAIPHSYPQKIHESMRYSLLAGGKRVRPVLCIAACELVGGREELAMPTACAMEMIHTMSLIHDDLPCMDNDDLRRGKPTNHKVFGQDTALLAGDALHAFAFEHIVAFTSKSVGSDGILRAVTELARATGPQGIMGGQIVDIASERDAFVDLQTLEWIHIHKTAVLFECATVCGAIIGGASGDEIERIRRFARYLGLLFQVVDDILDVTKSSEDLGKTAGKDLVSDKATYPKLMGLEKAKGFSLELLNKAKEELSCFDPMKAAPLFGLADYMALRQNLEHHHHHH
notes: as for B1

Biological target: the molecule itself
Test: gel filtration on calibrated Superdex 200; self-association of the subunit
Description: Molecular weight determination and kinetic evaluation. The molecular weight of GPP synthase was determined by gel filtration chromatography on a calibrated XK 16/70 column of Superdex 200 (Amersham Biosciences) as previously described (C. Burke and R. Croteau, J. Biol. Chem. 277:3141-3149, 2002). For kinetic evaluation, the standard prenyltransferase assay was performed (C. Burke and R. Croteau, J. Biol. Chem. 277:3141-3149, 2002) but the reaction was terminated after 4 min. to ensure linearity in the rate measurements. For preparative incubations, the reaction time was extended to 8 min., and all assays contained from 0.25 to 1.0 μg of purified protein.

Binding result, binds:
B1
B2
B3
